According to paper PMC7910581:

Biological target: T1, Nla28-DBD (Myxococcus xanthus (DK1622?)) (UniProt Q1DD46)
T1 sequence: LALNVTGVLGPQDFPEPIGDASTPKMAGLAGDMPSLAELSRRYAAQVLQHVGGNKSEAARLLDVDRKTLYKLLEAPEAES
Test: EMSA
Conditions: EMSA: 25 mM Tris acetate, 8.0 mM magnesium acetate, 10 mM KCl, 1 mM DTT, pH 8.0, 30 min at 30 C; 2 uM Nla28-DBD, 1 ng Cy5-DNA

binding, binds:
GCGTCTTCTTGTCCGTACCGCGGAAGCGCAGCAGGTAGGGGTTGGCGTAGAAGATGTTGCCGGGCTCGCGCTTGCCCACCCAGAACGTCTCGGGGGCAATCTCCACCGGCACGAGGCGGAGGTCGGAGCTCTGGCTCGGGCTTGGGACTGGGGCGATGGTGCTGCTCATGGGCGCGGCGTTCCTTCCCTTTCGGGTGTAT (double strand) [Cy5-P1579]
CAGCAGGCGCTCGAGGTCCTCAAGGTCAAGAAGTTCGAAAGCGGCATGGTGGTGGACCCCGTCACCATCGAACCGGAGGCCCCGCTGGGCCGCGCGCTGGAGCTGATGCGCCTTCACGGCGTGTCCGGCATCCCGGTGGTGAAGGGCCAGCGACTGGTGGGCATCGTCACCAGCCGCGACGTGCGCTTCGAGACCAACTT (double strand) [Cy5-P3778]
GCTCGTGTCGCGTCCCTACATCCAGAACGCCGCTCGCAAGGCATTGGTCTCCGCCGTGAAGAGCATTGAGGATGCTCAGCAGGAGCTGGAGAGGACGCAGAAGCAGGAGGTGGAGTCGGCAGGCGCGGTCTCGCAGGCAGGGGGCGCGAAGTCCTCCGGCTAGTCAGGACTGTGCGAGGTCGTGTGGACGCTGTCCCTGT (double strand) [Cy5-P1286]
